Experimental data published in patent publication US20110311517A1, “Antibodies and methods for treating estrogen receptor-associated diseases” (SHENOGEN PHARMA GROUP, LTD., priority 2009, published 2011).
Marks after values point to notes of the source that are not given here.

Experiments:
ERα36 = biological target: T1, ERα36 (Homo sapiens, UniProt P03372); experiment: ELISA of re-natured ScFv binding to ERα36
T1 construct: made in house; host or cells: chemical synthesis (no expression host)
T1 sequence (P03372 284-310 isoform P03372-4 limits assumed): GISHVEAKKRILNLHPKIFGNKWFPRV
Experimental: Streptavidin-coated 96-well plates were washed twice with PBS. Biotinylated ERα36 (final concentration of 20 μg/ml) was added into each testing well. The plates were incubated for 2 h at room temperature and washed three times with PBST. Re-natured ScFv samples (100 μl, S14A1r1, S24A2r2, S33A2r1, S41A3r3, S53A1r1, S66A1r1 and S72A2r1) were added into the testing wells respectively. Each ScFv was diluted five times in five gradients, and two parallel wells were loaded with each ScFv at each gradient. The plates were incubated at 37° C. for 1 h. The plates were washed three times with PBST, followed by addition of 100 μl anti-His-6 mouse monoclonal antibody (1:2000 dilution) per well and 1 h incubation at 37° C. The plates were washed three times with PBST, followed by addition of 100 μl goat anti-mouse-HRP (1:2500 dilution) per well and 1 h incubation at 37° C. The plates were washed six times with PBST, followed by addition of 100 μl OPD to develop under the protection from light. The reactions were terminated by adding 50 μl 2M H2SO4 to each well, and data were collected by microplate reader at 490 nm.
One positive control and three negative controls were performed in parallel. The positive control used rabbit anti-ER multi-clonal antibody serum in replacement of the ScFv re-natured sample and goat-anti-rabbit-HRP in replacement of goat-anti-mouse HRP.

[1] = test system: Human breast tumor BCAP-37; experiment: Tumor growth inhibition in BCAP-37 tumor-bearing nude mice; format: in vivo, BALB/c-nu nude mice
Source text: 49 female BALB/c-nu nude mice (provided by department of laboratory animal science, Peking University Health Science Center) were used in the studies.
(§1) The tested animals were grouped into 7 groups with 7 nude mice in each group. The seven groups are the negative control group treated with human IgG antibody (purchased from Beijing Biosynthesis Biotechnology Co. Ltd.), the positive control group treated with herceptin (provided by Beijing Shenogen pharma group), the multi-clonal antibody test group treated with rabbit anti-ERα36 multi-clonal antibody (provided by Wang, Zhao-Yi group, Creighton University), and the monoclonal antibody test groups treated with human anti-ERα36 monoclonal ScFv1, ScFv3, ScFv4 and ScFv7 respectively.
(§2) The test groups were administered with the same dose of rabbit anti-ERα36 multi-clonal antibody, human anti-ERα36 monoclonal ScFv1, ScFv3, ScFv4 and ScFv7 respectively (5 mg/kg, 100 μg/dose). The positive control group was administered with 5 mg/kg herceptin (100 μg/dose,), and the negative control group was administered with 5 mg/kg IgG antibody (100 μg/dose).
(§3) Human breast tumor BCAP-37 (estrogen receptor positive, provided by department of pharmacology, Institute of Materia Medica, Chinese Academy of Medical Sciences) was implanted subcutaneously into the armpit of the right forelimb of each tested nude mouse. Diethylstilbestrol was administered by gavage with the dose of 7 μg/day for 9 consecutive days after the implantation. On day 10, the mice were grouped into 7 groups and administered with the corresponding drug via intravenous injection, at a dosing interval of 3-4 days, for 6 consecutive doses. Every 3-4 days, the tumor-bearing mice were weighed and their tumor sizes were measured. Parameters were calculated using the following equations:
Volume of Tumor in animals of each group (VT): Vt=½×a×b^2, (Equation 1),
wherein a and b represent the length and width of the tumor, respectively;
wherein V0 is the volume of tumor before drug administration at the time of grouping, Vt is the volume of tumor at each measurement; the calculation method of V0 is the same as that of Vt;
wherein TRTV is the arithmetic mean of RTV of the test groups, and CRTV is the arithmetic mean of RTV of the negative control group.
The tumor bearing mice in each group were terminated after 21 days of observations and drug administrations. The tumors were then excised from the animals, photographed and weighed on 1/10000 analytical balance. The average tumor weights and tumor growth inhibition rates were calculated:
All experimental data were shown in mean±standard deviation. Groups were compared using statistical t test.

[2] = Body weight and mortality of tumor-bearing nude mice during drug administration; format: in vivo, BALB/c-nu nude mice; details: mean ± SD
Source text: as §1, §2
as §3, with “equations: […]” for “equations:”

[3] = ScFv concentration 235.00 μg/ml
[4] = ScFv concentration 170.00 μg/ml
[5] = BCAP-37 nude mice, 5 mg/kg i.v. every 3-4 days, 6 doses, mean ± SD
[6] = BCAP-37 nude mice, 5 mg/kg i.v. every 3-4 days, Vt relative to V0, mean ± SD
[7] = 5 mg/kg i.v. every 3-4 days, 6 doses

B1: ScFv6: fully human anti-ERα36 single chain antibody, SEQ ID NO: 13 (protein)
scFv: EIVMTQSPGTLSLSPGERATLSCRASQSVDSNFLAWYQQRPGQAPRLLIYGVSSSATGIPDRFSGSGSGTDFTLSIDRLEPEDFAVYYCQQYGSSPTFGGGTKLEIKRSGGSTITSYNVYYTKLSSSGTQVQLQESGGGLVQPGRSLRLSCAASGFTFDDYAMHWVRQAPGKGLEWVSGISWNSGSIGYADSVKGRFTISRDNAKNSLYLQMNSLRAEDTAVYYCARSGDYGAFDIWGQGTMVTVSSAS
modifications: scFv6
OD490 Well1 (ERα36; ScFv concentration 0.38 μg/ml): 0.127
OD490 Well2 (ERα36; ScFv concentration 0.38 μg/ml): 0.129
OD490 Well1 (ERα36; ScFv concentration 1.90 μg/ml): 0.161
OD490 Well2 (ERα36; ScFv concentration 1.90 μg/ml): 0.162
OD490 Well1 (ERα36; ScFv concentration 9.40 μg/ml): 0.210
OD490 Well2 (ERα36; ScFv concentration 9.40 μg/ml): 0.209
OD490 Well1 (ERα36; ScFv concentration 47.00 μg/ml): 0.327
OD490 Well2 (ERα36; ScFv concentration 47.00 μg/ml): 0.326
OD490 Well1 (ERα36; [3]): 0.677
OD490 Well2 (ERα36; [3]): 0.664

B2: ScFv3: fully human anti-ERα36 single chain antibody, SEQ ID NO: 7 (protein)
scFv: QSVLTQPASVSGSPGQSITISCTGTSSDVGGYNYVSWYQQHPGKAPKLMIYDVSKRPSGVSNRFSGSKSGNTASLTISGLQAEDEADYYCSSYTSSSTLVFGGGTKLTVLGSGGSTITSYNVYYTKLSSSGTEVQLVQSGGGVAQPGRSLRLSCAASGITFNSYGMHWVRQAPGKGLEWVAVMPYDGSNEYYADSVKGRFTISRDNSKNTLYLQMNSLRAEDTAVYYCAKGSGMVQLWADAFDVWGQGTMVTVSSAS
modifications: scFv3
OD490 Well1 (ERα36; ScFv concentration 1.44 μg/ml): 0.242
OD490 Well2 (ERα36; ScFv concentration 1.44 μg/ml): 0.037
OD490 Well1 (ERα36; ScFv concentration 7.20 μg/ml): 0.290
OD490 Well2 (ERα36; ScFv concentration 7.20 μg/ml): 0.229
OD490 Well1 (ERα36; ScFv concentration 36.00 μg/ml): 0.448
OD490 Well2 (ERα36; ScFv concentration 36.00 μg/ml): 0.344
OD490 Well1 (ERα36; [4]): 1.459
OD490 Well2 (ERα36; [4]): 1.349
Tumor volumes, Day 4 after drug administration [1, 5]: 171.91 ± 73.68^b mm^3
Tumor volumes, Day 7 after drug administration [1, 5]: 302.93 ± 100.01^b mm^3
Tumor volumes, Day 11 after drug administration [1, 5]: 1442.70 ± 406.32^b mm^3
Tumor volumes, Day 14 after drug administration [1, 5]: 1993.02 ± 405.84^b mm^3
Tumor volumes, Day 18 after drug administration [1, 5]: 2859.65 ± 427.16^b mm^3
Tumor volumes, Day 21 after drug administration [1, 5]: 3324.97 ± 460.89^b mm^3
relative tumor volume (RTV), Day 4 [1, 6]: 3.61 ± 2.03^b
relative tumor volume (RTV), Day 7 [1, 6]: 6.31 ± 2.88^b
relative tumor volume (RTV), Day 11 [1, 6]: 30.44 ± 14.49^b
relative tumor volume (RTV), Day 14 [1, 6]: 41.87 ± 16.82^b
relative tumor volume (RTV), Day 18 [1, 6]: 59.61 ± 20.46^b
relative tumor volume (RTV), Day 21 [1, 6]: 69.18 ± 22.85^b
inhibition of tumor growth in tumor-bearing mice (in words) ([1]; BCAP-37 nude mice, 5 mg/kg i.v., 6 doses): strongest inhibitory activities
Tumor volumes, Before drug administration ([1]; baseline, BCAP-37 nude mice, 5 mg/kg i.v. every 3-4 days, 6 doses, mean ± SD): 50.51 ± 10.12 mm^3
tumor sizes at pathological examination (in words) ([1]; excised tumors after 21 days): the smallest among the mono-clonal antibody groups
Tumor weight ([1]; excised tumors after 21 days, BCAP-37 nude mice, 5 mg/kg i.v., 6 doses, mean ± SD): 2.738 ± 0.344 g
Tumor growth inhibition rate (%) ([1]; from average tumor weights after 21 days vs negative control, 5 mg/kg i.v., 6 doses): 59.76%
Body weights of tumor-bearing nude mice, Day 4 after drug administration [2, 7]: 20.28 ± 0.54
Body weights of tumor-bearing nude mice, Day 7 after drug administration [2, 7]: 20.75 ± 0.31
Body weights of tumor-bearing nude mice, Day 11 after drug administration [2, 7]: 21.24 ± 0.55
Body weights of tumor-bearing nude mice, Day 14 after drug administration [2, 7]: 22.04 ± 0.59
Body weights of tumor-bearing nude mice, Day 18 after drug administration [2, 7]: 23.38 ± 0.46
Body weights of tumor-bearing nude mice, Day 21 after drug administration [2, 7]: 23.62 ± 0.36
body weight when grouped ([2]; baseline at the time of grouping): 19.94 ± 0.81
Body weights of tumor-bearing nude mice, Before drug administration ([2]; baseline, 5 mg/kg i.v. every 3-4 days, 6 doses): 19.94 ± 0.81

B3: ScFv2: fully human anti-ERα36 single chain antibody, SEQ ID NO: 5 (protein)
scFv: QSALTQPASVSGSPGQSITISCTGTSSDVGGYNYVSWYQQHPGKAPKLMIYDVSKRPSGVSNRFSGSKSGNTASLTISGLQAEDEADYYCSSYTSSSTLVFGGGTKLTVLGSGGSTITSYNVYYTKLSSSGTQVQLLESGAEVKKPGASVKVSCKASGYTFTAYYMHWVRQAPGQGLEWMAMIDPSGSITSYAQKFQGRVTMSRDTSTSTLYMELSSLRSDDTAVYYCARDLKEGFSVPGAFDIWGQGTMVTVSSAS
modifications: scFv2
OD490 Well1 (ERα36; ScFv concentration 1.40 μg/ml): 0.095
OD490 Well2 (ERα36; ScFv concentration 1.40 μg/ml): 0.096
OD490 Well1 (ERα36; ScFv concentration 7.00 μg/ml): 0.138
OD490 Well2 (ERα36; ScFv concentration 7.00 μg/ml): 0.121
OD490 Well1 (ERα36; ScFv concentration 35.00 μg/ml): 0.343
OD490 Well2 (ERα36; ScFv concentration 35.00 μg/ml): 0.359
